Experimental findings from paper PMC10665668 are described below.

The target of experiment [1] is class II sulfofructose-1-phosphate (SFP) aldolase from Hafnia paralvei (Hafnia paralvei). Description: SEC-MALS. For orientation: In gel filtration, larger molecules generally elute earlier.
Experiment [2] addresses class II sulfofructose-1-phosphate (SFP) aldolase from Yersinia aldovae (Yersinia aldovae). Description: SEC-MALS.

As to “class II sulfofructose-1-phosphate (SFP) aldolase from Hafnia paralvei (enzyme)”, the stoichiometry N in experiment [1] was 4.

In experiment [2], “class II sulfofructose-1-phosphate (SFP) aldolase from Yersinia aldovae (enzyme)” registered a stoichiometry N of 4.

One may read the stoichiometry N as the number of molecules, sites or subunits per partner or assembly.
